T1: human IL-11 (Invigate, e.g., lot #C121021-19) (human, UniProt P20809 22-199)
T1 construct: Bought protein; also called hIL-11; hIL11
T1 sequence: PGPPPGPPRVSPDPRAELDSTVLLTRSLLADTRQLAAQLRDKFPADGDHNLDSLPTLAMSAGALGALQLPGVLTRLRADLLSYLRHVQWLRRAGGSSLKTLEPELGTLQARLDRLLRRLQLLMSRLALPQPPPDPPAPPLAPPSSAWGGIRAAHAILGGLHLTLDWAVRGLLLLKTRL

T2: murine IL-11 (Invigate, e.g., lot #C210819-09) (mouse, UniProt P47873 22-199)
T2 construct: Bought protein; biotinylated where captured on streptavidin plates; also called mIL-11; mIL11
T2 sequence: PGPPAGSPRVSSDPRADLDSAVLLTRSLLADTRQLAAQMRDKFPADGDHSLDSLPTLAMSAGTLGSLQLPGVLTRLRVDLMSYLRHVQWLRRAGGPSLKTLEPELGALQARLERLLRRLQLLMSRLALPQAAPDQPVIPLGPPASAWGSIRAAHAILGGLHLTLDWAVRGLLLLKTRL

T3: murine IL-11 (mouse, UniProt P47873 22-199)
T3 sequence: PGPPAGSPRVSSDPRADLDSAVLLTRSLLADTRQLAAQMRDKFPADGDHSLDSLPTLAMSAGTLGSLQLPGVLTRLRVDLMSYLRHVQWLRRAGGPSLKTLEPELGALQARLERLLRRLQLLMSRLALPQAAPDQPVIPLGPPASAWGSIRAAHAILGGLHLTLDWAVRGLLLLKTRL

T4: human IL-11 (human, UniProt P20809 22-199)
T4 sequence: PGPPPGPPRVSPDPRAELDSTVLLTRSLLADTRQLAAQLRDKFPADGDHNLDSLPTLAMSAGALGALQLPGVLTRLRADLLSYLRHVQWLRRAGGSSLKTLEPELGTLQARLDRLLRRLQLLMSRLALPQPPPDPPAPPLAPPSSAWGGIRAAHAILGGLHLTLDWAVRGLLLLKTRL

T5: human IL2Ra (human, UniProt P01589 22-240, limits assumed)
T5 construct: coated on the ELISA plate; also called IL-2 receptor alpha
T5 sequence (looked up): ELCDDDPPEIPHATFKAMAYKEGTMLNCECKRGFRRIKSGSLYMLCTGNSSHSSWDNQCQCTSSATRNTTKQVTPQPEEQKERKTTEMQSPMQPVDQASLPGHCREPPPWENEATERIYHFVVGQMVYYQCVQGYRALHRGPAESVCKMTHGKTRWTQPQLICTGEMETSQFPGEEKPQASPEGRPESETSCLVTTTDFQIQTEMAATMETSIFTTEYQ


What was measured:
[1] = biological target: T1, human IL-11 (Invigate, e.g., lot …); assay: Di-complex ELISA: biotinylated human IL-11 on streptavidin plate, antibody titrated against 2 nM canine IL11RA-human-Fc (competitor)
Description: (§1) In the Di-complex ELISA format anti IL-11 antibodies are tested for the ability to interfere with the formation of complexes consisting of immobilized murine IL-11 (Invigate, e.g., lot #C210819-09) or human IL-11 (Invigate, e.g., lot #C121021-19), and murine IL11RA-Fc fusion proteins or canine IL11RA-human-Fc fusion protein (FIG. 17a, b).
(§2) The assay is performed using streptavidin coated microtiter plates (Greiner bio-one, #781997). In a first step, 10 nM biotinylated mouse IL-11 (Invigate, Germany, e.g., lot #C210819-09) or human IL-11 (Invigate, Germany, e.g., lot #C121021-19) is coated in 25 μl PBS on the plate at 4° C. overnight. Next day, the plate is washed three times with 50 μl PBST and then blocked with 50 μl SmartBlock (Candor, #113125) for one hour at room temperature (RT). After additional three washes with PBST, 25 μl of a mixture of the murine anti IL-11 antibody and recombinant canine IL11RA-Fc fusion protein (Sino Biological, #70078-D02H) in PBS-T, 10% Smartblock are added simultaneously to the plate and incubated for one hour at RT. […] After three additional washes with PBS-T, 25 μl anti-human-POD (Sigma, #A0170) in PBS-T, 10% Smartblock is added and incubated for 1 hour at RT. After a final three washes with PBS-T, 25 μl AmplexRed (Fisher Scientific, A12222), 1/1000 in PBS, 0,003% H₂O₂, is added as substrate and incubated for 15 min at RT in the dark. Then, the fluorescence is measured with a plate reader at 535/595 nm. Signals from dose responses were used to calculate IC50 values (GraphPad Prism). Efficacy was calculated as [(signal measured at lowest antibody concentration−signal measured at the highest antibody concentration)×100] divided by (signal measured at lowest antibody concentration−signal measured in the absence of IL11Ra).

[2] = biological target: T2, murine IL-11 (Invigate, e.g., lot …); assay: Di-complex ELISA: biotinylated murine IL-11 on streptavidin plate, antibody titrated against 2 nM canine IL11RA-human-Fc (competitor)
Description: as §1, §2

murine IL-11 = biological target: T3, murine IL-11; assay: cell-based or functional assay
human IL-11 = biological target: T4, human IL-11; assay: cell-based or functional assay
human IL2Ra = biological target: T5, human IL2Ra; assay: ELISA on coated IL2Ra, signal ratio to isotype control TPP-10159 at 3.3E-7 M antibody
Description: IL2RA (Peprotech, Germany, #200-02RC) was coated at 1 or 0 μg/ml (buffer only control) in 30 μl coating buffer (Candor, #113500) per well on a 384 well microtiter plate (Maxisorb, Nunc, #460518) over night at 4-8° C. After two washes with 50 μl/well washing buffer (PBS+0.05% Tween, pH 7.4), the plates were incubated for two hours at room temperature with 50 μl/well SmartBlock (Candor, #113500). After blocking, the plates were washed three times with washing buffer. Then, a dilution series of the respective antibody (1E-7 [M] down to 2E-13 [M]) in PBS+0.05% Tween, 10% SmartBlock were added in 30 μl to the microtiter plate and incubated for 90 min at room temperature. After three additional washes, 30 μl anti mouse IgG HRP-conjugated antibody (Biotechne, HAF007), diluted 1:1000 in PBS+0.05% Tween (pH 7.4), were added per well and incubated for one hour. After three additional washes, a mixture of Amplex red (Invitrogen, #12222, 10 mM stock solution in DMSO) 1:1000 diluted in PBS and H2O2 (30%, Merck, #107209)) diluted 1:10000 in PBS were added as substrate with 30 μl per well and incubated for 20 min in the dark. Relative fluorescence was measured with a microtiter plate reader at 535/590 nm.
IgG converted antibodies TPP-were tested for binding to IL2Ra as described in Example 20. The ratios of the signals obtained at an antibody concentration of 3.3E-7 [M] for IgG converted antibody versus the isotype control TPP-10159 were calculated and are shown in Table E22.

| Efficacy (%) [1] | Efficacy (%) [2] | Efficacy (%), Stat3 reporter gene assay (murine IL-11) | IC50, Stat3 reporter gene assay (murine IL-11) | Efficacy (%), Stat3 reporter gene assay (human IL-11) | IC50, Stat3 reporter gene assay (human IL-11) | Antibody/Isotype Control Ratio of IL-2Ra Binding Signals (human IL2Ra) | Binder | other results |
| --- | --- | --- | --- | --- | --- | --- | --- | --- |
| 10.7% | 13.4% | – | – | – | – | – | TPP-18087 (antibody, mouse IgG1, V domains shown, mIgG1, Lambda) VH: EVQLLESGGGLVQPGGSLRLSCAASGFTFSHYDMNWLRQAPGKGLEWVGVISYDGSNKFYADFVKGRFTISRDNSKNTLYLQMNSLRAEDTAVYYCARTPGSHFDYWGQGTLVTVSS VL: QSVLTQPPSASGTPGQRVTISCSGSSSNIGNNAVNWYQQLPGTAPKLLIYYDDLLPSGVPDRFSGSKSGTSASLAISGLRSEDEADYYCSAWDDSLNGVVFGGGTKLTVLG [TPP-18087, listing 1 of 2 here] | – |
| – | – | 49% | 330 nM | 51.5% | 110 nM | 0.6 ratio | TPP-18087 (antibody, mouse IgG1, V domains shown, mIgG1, Lambda) VH: EVQLLESGGGLVQPGGSLRLSCAASGFTFSHYDMNWLRQAPGKGLEWVGVISYDGSNKFYADFVKGRFTISRDNSKNTLYLQMNSLRAEDTAVYYCARTPGSHFDYWGQGTLVTVSS VL: QSVLTQPPSASGTPGQRVTISCSGSSSNIGNNAVNWYQQLPGTAPKLLIYYDDLLPSGVPDRFSGSKSGTSASLAISGLRSEDEADYYCSAWDDSLNGVVFGGGTKLTVLG [TPP-18087, listing 2 of 2 here] | – |
| 57% | 79% | – | – | – | – | – | TPP-19528 (antibody, mouse IgG1, V domains shown, mIgG1, Lambda) VH: EVQLLESGGGLVQPGGSLRLSCAASGFTFSIYAMSWVRQAPGKGLEWVSSISDTGDRTYYADSVKGRFTISRDNSKNTLYLQMNSLRAEDTAVYYCARSNWGSLDYWGQGTLVTVSS VL: QSVLTQPPSASGTPGQRVTISCSGSSSNIGSNYVYWYQQLPGTAPKLLIYYDDLLPSGVPDRFSGSKSGTSASLAISGLRSEDEADYYCAAWDDSLSGRVFGGGTKLTVLG | IC50 [1]: 3 nM; IC50 [2]: 24 nM |
| – | – | – | – | – | – | 0.7 ratio | TPP-29519 (antibody, mouse IgG1, mIgG1, Lambda) heavy: QVQLVESGGGVVQPGRSLRLSCAASGFTFSHYDMHWVRQAPGKGLEWVAVISYHGSVKFYADSVKGRFTISRDNSKNTLYLQMNSLRAEDTAVYYCARTPGFHFDYWGQGTLVTVSSAKTTPPSVYPLAPGSAAQTNSMVTLGCLVKGYFPEPVTVTWNSGSLSSGVHTFPAVLQSDLYTLSSSVTVPSSTWPSETVTCNVAHPASSTKVDKKIVPRDCGCKPCICTVPEVSSVFIFPPKPKDVLTITLTPKVTCVVVDISKDDPEVQFSWFVDDVEVHTAQTQPREEQFNSTFRSVSELPIMHQDWLNGKEFKCRVNSAAFPAPIEKTISKTKGRPKAPQVYTIPPPKEQMAKDKVSLTCMITDFFPEDITVEWQWNGQPAENYKNTQPIMDTDGSYFVYSKLNVQKSNWEAGNTFTCSVLHEGLHNHHTEKSLSHSPGK light: QSVLTQPPSASGTPGQRVTISCSGSSSNIGSNYVSWYQQLPGTAPKLLIYYDDLRPSGVPDRFSGSKSGTSASLAISGLRSEDEADYYCSAWDDSLSGVVFGGGTKLTVLGQPKSSPSVTLFPPSSEELETNKATLVCTITDFYPGVVTVDWKVDGTPVTQGMETTQPSKQSNNKYMASSYLTLTARAWERHSSYSCQVTHEGHTVEKSLSRADCS | – |
| – | – | 84.1% | 2.7 nM | 20.7% | 4.8 nM | 377 ratio | TPP-18068 (antibody, mouse IgG1, mIgG1, Lambda) heavy: EVQLLESGGGLVQPGGSLRLSCAASGFTFSSYGMHWVRQAPGKGLEWVSVISYDGSYKYYADSVKGRFTISRDNSKNTLYLQMNSLRAEDTAVYYCAAGVPDYWGQGTLVTVSSAKTTPPSVYPLAPGSAAQTNSMVTLGCLVKGYFPEPVTVTWNSGSLSSGVHTFPAVLQSDLYTLSSSVTVPSSTWPSETVTCNVAHPASSTKVDKKIVPRDCGCKPCICTVPEVSSVFIFPPKPKDVLTITLTPKVTCVVVDISKDDPEVQFSWFVDDVEVHTAQTQPREEQFNSTFRSVSELPIMHQDWLNGKEFKCRVNSAAFPAPIEKTISKTKGRPKAPQVYTIPPPKEQMAKDKVSLTCMITDFFPEDITVEWQWNGQPAENYKNTQPIMDTDGSYFVYSKLNVQKSNWEAGNTFTCSVLHEGLHNHHTEKSLSHSPGK light: QSVLTQPPSASGTPGQRVTISCTGSSSNIGAGYDVHWYQQLPGTAPKLLIYSNNERPSGVPDRFSGSKSGTSASLAISGLRSEDEADYYCAAWDDSLNGPVFGGGTKLTVLGQPKSSPSVTLFPPSSEELETNKATLVCTITDFYPGVVTVDWKVDGTPVTQGMETTQPSKQSNNKYMASSYLTLTARAWERHSSYSCQVTHEGHTVEKSLSRADCS | – |
| – | – | – | – | – | – | 24.2 ratio | TPP-29528 (antibody, mouse IgG1, mIgG1, Lambda) heavy: EVQLLESGGGLVQPGGSLRLSCAASGFTFSSYGMHWVRQAPGKGLEWVAVISYDGSYKYYADSVKGRFTISRDNSKNTLYLQMNSLRAEDTAVYYCAAGVPDYWGQGTLVTVSSAKTTPPSVYPLAPGSAAQTNSMVTLGCLVKGYFPEPVTVTWNSGSLSSGVHTFPAVLQSDLYTLSSSVTVPSSTWPSETVTCNVAHPASSTKVDKKIVPRDCGCKPCICTVPEVSSVFIFPPKPKDVLTITLTPKVTCVVVDISKDDPEVQFSWFVDDVEVHTAQTQPREEQFNSTFRSVSELPIMHQDWLNGKEFKCRVNSAAFPAPIEKTISKTKGRPKAPQVYTIPPPKEQMAKDKVSLTCMITDFFPEDITVEWQWNGQPAENYKNTQPIMDTDGSYFVYSKLNVQKSNWEAGNTFTCSVLHEGLHNHHTEKSLSHSPGK light: QSVLTQPPSASGTPGQRVTISCSGSSSNIGSDYDVHWYQQLPGTAPKLLIYSNEERPSGVPDRFSGSKSGTSASLAISGLRSEDEADYYCSAWDSSLSGPVFGGGTKLTVLGQPKSSPSVTLFPPSSEELETNKATLVCTITDFYPGVVTVDWKVDGTPVTQGMETTQPSKQSNNKYMASSYLTLTARAWERHSSYSCQVTHEGHTVEKSLSRADCS | – |

Reference: patent US20240317847A1 (Bayer, published 2024)
